Square brackets hold non-standard residues; d marks the D form. Ends that are not written are not given here. Aib = CC(C)(N)C(=O)O
T1: human glucose-dependent insulinotropic peptide receptor (human, UniProt P48546)
T1 sequence: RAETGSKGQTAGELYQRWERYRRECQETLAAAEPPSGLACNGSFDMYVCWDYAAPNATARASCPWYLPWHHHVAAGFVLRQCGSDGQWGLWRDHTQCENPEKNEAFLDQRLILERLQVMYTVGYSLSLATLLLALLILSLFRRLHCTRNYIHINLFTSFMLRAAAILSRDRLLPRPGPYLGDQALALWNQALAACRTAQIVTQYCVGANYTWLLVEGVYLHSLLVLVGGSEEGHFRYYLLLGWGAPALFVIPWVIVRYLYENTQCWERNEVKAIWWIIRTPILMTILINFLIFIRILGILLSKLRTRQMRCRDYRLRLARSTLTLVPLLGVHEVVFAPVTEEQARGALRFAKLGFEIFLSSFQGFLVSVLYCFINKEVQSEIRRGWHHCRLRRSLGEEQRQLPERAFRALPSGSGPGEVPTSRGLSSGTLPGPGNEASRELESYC


Target: T1, human glucose-dependent insulinotropic …
Experiment: cell-based or functional assay

Row | Binder | Activity for human GIPR (EC50 nM), cAMP HTRF
1 | Y[Aib]EGTFTSDVSSYLEEEHQKEFIAWLVRGGPSSGAPPPSK-NH2 (N-terminus assumed; SMILES CC[C@H](C)[C@H](NC(=O)[C@H](Cc1ccccc1)NC(=O)[C@H](CCC(=O)O)NC(=O)[C@H](CCCCN)NC(=O)[C@H](CCC(N)=O)NC(=O)[C@H](Cc1c[nH]cn1)NC(=O)[C@H](CCC(=O)O)NC(=O)[C@H](CCC(=O)O)NC(=O)[C@H](CCC(=O)O)NC(=O)[C@H](CC(C)C)NC(=O)[C@H](Cc1ccc(O)cc1)NC(=O)[C@H](CO)NC(=O)[C@H](CO)NC(=O)[C@@H](NC(=O)[C@H](CC(=O)O)NC(=O)[C@H](CO)NC(=O)[C@@H](NC(=O)[C@H](Cc1ccccc1)NC(=O)[C@@H](NC(=O)CNC(=O)[C@H](CCC(=O)O)NC(=O)C(C)(C)NC(=O)[C@@H](N)Cc1ccc(O)cc1)[C@@H](C)O)[C@@H](C)O)C(C)C)C(=O)N[C@@H](C)C(=O)N[C@@H](Cc1c[nH]c2ccccc12)C(=O)N[C@@H](CC(C)C)C(=O)N[C@H](C(=O)N[C@@H](CCCNC(=N)N)C(=O)NCC(=O)NCC(=O)N1CCC[C@H]1C(=O)N[C@@H](CO)C(=O)N[C@@H](CO)C(=O)NCC(=O)N[C@@H](C)C(=O)N1CCC[C@H]1C(=O)N1CCC[C@H]1C(=O)N1CCC[C@H]1C(=O)N[C@@H](CO)C(=O)N[C@@H](CCCCN)C(N)=O)C(C)C) [Compound No. 3] | 0.91 nM
2 | Y[Aib]EGTFTSDYSIYLEKEAAKEFIAWLLAGGPSSGAPPPS-NH2 (N-terminus assumed; SMILES CC[C@H](C)[C@H](NC(=O)[C@H](Cc1ccccc1)NC(=O)[C@H](CCC(=O)O)NC(=O)[C@H](CCCCN)NC(=O)[C@H](C)NC(=O)[C@H](C)NC(=O)[C@H](CCC(=O)O)NC(=O)[C@H](CCCCN)NC(=O)[C@H](CCC(=O)O)NC(=O)[C@H](CC(C)C)NC(=O)[C@H](Cc1ccc(O)cc1)NC(=O)[C@@H](NC(=O)[C@H](CO)NC(=O)[C@H](Cc1ccc(O)cc1)NC(=O)[C@H](CC(=O)O)NC(=O)[C@H](CO)NC(=O)[C@@H](NC(=O)[C@H](Cc1ccccc1)NC(=O)[C@@H](NC(=O)CNC(=O)[C@H](CCC(=O)O)NC(=O)C(C)(C)NC(=O)[C@@H](N)Cc1ccc(O)cc1)[C@@H](C)O)[C@@H](C)O)[C@@H](C)CC)C(=O)N[C@@H](C)C(=O)N[C@@H](Cc1c[nH]c2ccccc12)C(=O)N[C@@H](CC(C)C)C(=O)N[C@@H](CC(C)C)C(=O)N[C@@H](C)C(=O)NCC(=O)NCC(=O)N1CCC[C@H]1C(=O)N[C@@H](CO)C(=O)N[C@@H](CO)C(=O)NCC(=O)N[C@@H](C)C(=O)N1CCC[C@H]1C(=O)N1CCC[C@H]1C(=O)N1CCC[C@H]1C(=O)N[C@@H](CO)C(N)=O) [Compound No. 67] | 0.017 nM
3 | Y[Aib]EGTFTSDVSIYLEKIAAQEFVNWLLAGGPSSGAPPPS-NH2 (N-terminus assumed; SMILES CC[C@H](C)[C@H](NC(=O)[C@H](CCCCN)NC(=O)[C@H](CCC(=O)O)NC(=O)[C@H](CC(C)C)NC(=O)[C@H](Cc1ccc(O)cc1)NC(=O)[C@@H](NC(=O)[C@H](CO)NC(=O)[C@@H](NC(=O)[C@H](CC(=O)O)NC(=O)[C@H](CO)NC(=O)[C@@H](NC(=O)[C@H](Cc1ccccc1)NC(=O)[C@@H](NC(=O)CNC(=O)[C@H](CCC(=O)O)NC(=O)C(C)(C)NC(=O)[C@@H](N)Cc1ccc(O)cc1)[C@@H](C)O)[C@@H](C)O)C(C)C)[C@@H](C)CC)C(=O)N[C@@H](C)C(=O)N[C@@H](C)C(=O)N[C@@H](CCC(N)=O)C(=O)N[C@@H](CCC(=O)O)C(=O)N[C@@H](Cc1ccccc1)C(=O)N[C@H](C(=O)N[C@@H](CC(N)=O)C(=O)N[C@@H](Cc1c[nH]c2ccccc12)C(=O)N[C@@H](CC(C)C)C(=O)N[C@@H](CC(C)C)C(=O)N[C@@H](C)C(=O)NCC(=O)NCC(=O)N1CCC[C@H]1C(=O)N[C@@H](CO)C(=O)N[C@@H](CO)C(=O)NCC(=O)N[C@@H](C)C(=O)N1CCC[C@H]1C(=O)N1CCC[C@H]1C(=O)N1CCC[C@H]1C(=O)N[C@@H](CO)C(N)=O)C(C)C) [Compound No. 68] | 0.047 nM

Target: human glucagon-like peptide-1 receptor (human, UniProt P43220)
Experiment: cell-based or functional assay

Row | Binder | Activity for human GLP-1R (EC50 nM), cAMP HTRF
4 | Y[Aib]EGTFTSDVSSYLEEEHQKEFIAWLVRGGPSSGAPPPSK-NH2 (N-terminus assumed; SMILES CC[C@H](C)[C@H](NC(=O)[C@H](Cc1ccccc1)NC(=O)[C@H](CCC(=O)O)NC(=O)[C@H](CCCCN)NC(=O)[C@H](CCC(N)=O)NC(=O)[C@H](Cc1c[nH]cn1)NC(=O)[C@H](CCC(=O)O)NC(=O)[C@H](CCC(=O)O)NC(=O)[C@H](CCC(=O)O)NC(=O)[C@H](CC(C)C)NC(=O)[C@H](Cc1ccc(O)cc1)NC(=O)[C@H](CO)NC(=O)[C@H](CO)NC(=O)[C@@H](NC(=O)[C@H](CC(=O)O)NC(=O)[C@H](CO)NC(=O)[C@@H](NC(=O)[C@H](Cc1ccccc1)NC(=O)[C@@H](NC(=O)CNC(=O)[C@H](CCC(=O)O)NC(=O)C(C)(C)NC(=O)[C@@H](N)Cc1ccc(O)cc1)[C@@H](C)O)[C@@H](C)O)C(C)C)C(=O)N[C@@H](C)C(=O)N[C@@H](Cc1c[nH]c2ccccc12)C(=O)N[C@@H](CC(C)C)C(=O)N[C@H](C(=O)N[C@@H](CCCNC(=N)N)C(=O)NCC(=O)NCC(=O)N1CCC[C@H]1C(=O)N[C@@H](CO)C(=O)N[C@@H](CO)C(=O)NCC(=O)N[C@@H](C)C(=O)N1CCC[C@H]1C(=O)N1CCC[C@H]1C(=O)N1CCC[C@H]1C(=O)N[C@@H](CO)C(=O)N[C@@H](CCCCN)C(N)=O)C(C)C) [Compound No. 3] | 0.578 nM
5 | Y[Aib]EGTFTSDVSIYLEKEAAKEFVNWLLAGGPSSGAPPPSK-NH2 (N-terminus assumed; SMILES CC[C@H](C)[C@H](NC(=O)[C@H](CO)NC(=O)[C@@H](NC(=O)[C@H](CC(=O)O)NC(=O)[C@H](CO)NC(=O)[C@@H](NC(=O)[C@H](Cc1ccccc1)NC(=O)[C@@H](NC(=O)CNC(=O)[C@H](CCC(=O)O)NC(=O)C(C)(C)NC(=O)[C@@H](N)Cc1ccc(O)cc1)[C@@H](C)O)[C@@H](C)O)C(C)C)C(=O)N[C@@H](Cc1ccc(O)cc1)C(=O)N[C@@H](CC(C)C)C(=O)N[C@@H](CCC(=O)O)C(=O)N[C@@H](CCCCN)C(=O)N[C@@H](CCC(=O)O)C(=O)N[C@@H](C)C(=O)N[C@@H](C)C(=O)N[C@@H](CCCCN)C(=O)N[C@@H](CCC(=O)O)C(=O)N[C@@H](Cc1ccccc1)C(=O)N[C@H](C(=O)N[C@@H](CC(N)=O)C(=O)N[C@@H](Cc1c[nH]c2ccccc12)C(=O)N[C@@H](CC(C)C)C(=O)N[C@@H](CC(C)C)C(=O)N[C@@H](C)C(=O)NCC(=O)NCC(=O)N1CCC[C@H]1C(=O)N[C@@H](CO)C(=O)N[C@@H](CO)C(=O)NCC(=O)N[C@@H](C)C(=O)N1CCC[C@H]1C(=O)N1CCC[C@H]1C(=O)N1CCC[C@H]1C(=O)N[C@@H](CO)C(=O)N[C@@H](CCCCN)C(N)=O)C(C)C) [Compound No. 7] | 0.016 nM
6 | Y[Aib]EGTFTSDYSIYLDKIAAQEFVQWLLAGGPSSGAPPPSK-NH2 (N-terminus assumed; SMILES CC[C@H](C)[C@H](NC(=O)[C@H](CCCCN)NC(=O)[C@H](CC(=O)O)NC(=O)[C@H](CC(C)C)NC(=O)[C@H](Cc1ccc(O)cc1)NC(=O)[C@@H](NC(=O)[C@H](CO)NC(=O)[C@H](Cc1ccc(O)cc1)NC(=O)[C@H](CC(=O)O)NC(=O)[C@H](CO)NC(=O)[C@@H](NC(=O)[C@H](Cc1ccccc1)NC(=O)[C@@H](NC(=O)CNC(=O)[C@H](CCC(=O)O)NC(=O)C(C)(C)NC(=O)[C@@H](N)Cc1ccc(O)cc1)[C@@H](C)O)[C@@H](C)O)[C@@H](C)CC)C(=O)N[C@@H](C)C(=O)N[C@@H](C)C(=O)N[C@@H](CCC(N)=O)C(=O)N[C@@H](CCC(=O)O)C(=O)N[C@@H](Cc1ccccc1)C(=O)N[C@H](C(=O)N[C@@H](CCC(N)=O)C(=O)N[C@@H](Cc1c[nH]c2ccccc12)C(=O)N[C@@H](CC(C)C)C(=O)N[C@@H](CC(C)C)C(=O)N[C@@H](C)C(=O)NCC(=O)NCC(=O)N1CCC[C@H]1C(=O)N[C@@H](CO)C(=O)N[C@@H](CO)C(=O)NCC(=O)N[C@@H](C)C(=O)N1CCC[C@H]1C(=O)N1CCC[C@H]1C(=O)N1CCC[C@H]1C(=O)N[C@@H](CO)C(=O)N[C@@H](CCCCN)C(N)=O)C(C)C) [Compound No. 21] | 0.043 nM
7 | Y[Aib]EGTFTSDYSIYLEEEAAQEFVNWLLAGGPSSGAPPPS-NH2 (N-terminus assumed; SMILES CC[C@H](C)[C@H](NC(=O)[C@H](CO)NC(=O)[C@H](Cc1ccc(O)cc1)NC(=O)[C@H](CC(=O)O)NC(=O)[C@H](CO)NC(=O)[C@@H](NC(=O)[C@H](Cc1ccccc1)NC(=O)[C@@H](NC(=O)CNC(=O)[C@H](CCC(=O)O)NC(=O)C(C)(C)NC(=O)[C@@H](N)Cc1ccc(O)cc1)[C@@H](C)O)[C@@H](C)O)C(=O)N[C@@H](Cc1ccc(O)cc1)C(=O)N[C@@H](CC(C)C)C(=O)N[C@@H](CCC(=O)O)C(=O)N[C@@H](CCC(=O)O)C(=O)N[C@@H](CCC(=O)O)C(=O)N[C@@H](C)C(=O)N[C@@H](C)C(=O)N[C@@H](CCC(N)=O)C(=O)N[C@@H](CCC(=O)O)C(=O)N[C@@H](Cc1ccccc1)C(=O)N[C@H](C(=O)N[C@@H](CC(N)=O)C(=O)N[C@@H](Cc1c[nH]c2ccccc12)C(=O)N[C@@H](CC(C)C)C(=O)N[C@@H](CC(C)C)C(=O)N[C@@H](C)C(=O)NCC(=O)NCC(=O)N1CCC[C@H]1C(=O)N[C@@H](CO)C(=O)N[C@@H](CO)C(=O)NCC(=O)N[C@@H](C)C(=O)N1CCC[C@H]1C(=O)N1CCC[C@H]1C(=O)N1CCC[C@H]1C(=O)N[C@@H](CO)C(N)=O)C(C)C) [Compound No. 73] | 0.069 nM
8 | Y[Aib]EGTFTSDYSIYLEKIAAQEFVQWLIAGGPSSGAPPPS-NH2 (N-terminus assumed; SMILES CC[C@H](C)[C@H](NC(=O)[C@H](CCCCN)NC(=O)[C@H](CCC(=O)O)NC(=O)[C@H](CC(C)C)NC(=O)[C@H](Cc1ccc(O)cc1)NC(=O)[C@@H](NC(=O)[C@H](CO)NC(=O)[C@H](Cc1ccc(O)cc1)NC(=O)[C@H](CC(=O)O)NC(=O)[C@H](CO)NC(=O)[C@@H](NC(=O)[C@H](Cc1ccccc1)NC(=O)[C@@H](NC(=O)CNC(=O)[C@H](CCC(=O)O)NC(=O)C(C)(C)NC(=O)[C@@H](N)Cc1ccc(O)cc1)[C@@H](C)O)[C@@H](C)O)[C@@H](C)CC)C(=O)N[C@@H](C)C(=O)N[C@@H](C)C(=O)N[C@@H](CCC(N)=O)C(=O)N[C@@H](CCC(=O)O)C(=O)N[C@@H](Cc1ccccc1)C(=O)N[C@H](C(=O)N[C@@H](CCC(N)=O)C(=O)N[C@@H](Cc1c[nH]c2ccccc12)C(=O)N[C@@H](CC(C)C)C(=O)N[C@H](C(=O)N[C@@H](C)C(=O)NCC(=O)NCC(=O)N1CCC[C@H]1C(=O)N[C@@H](CO)C(=O)N[C@@H](CO)C(=O)NCC(=O)N[C@@H](C)C(=O)N1CCC[C@H]1C(=O)N1CCC[C@H]1C(=O)N1CCC[C@H]1C(=O)N[C@@H](CO)C(N)=O)[C@@H](C)CC)C(C)C) [Compound No. 79] | 0.012 nM

From US20220168396A1, “MULTI-RECEPTOR AGONIST AND MEDICAL USE THEREOF” (published 2022)
